Kd data for 2 molecules are collected here from article PMC8060278 (Nature Communications, 2021).

In experiment [1] the target is GPIbα LBD (Homo sapiens) (UniProt P07359). The conditions noted are these: cited from earlier work.
For experiment [2], the target named is T1, purified VWF (Homo sapiens, UniProt P04275).
T1 construct: von Willebrand factor
Briefly: ELISA; VWF coated on plates (6 μg/mL in PBS); VHH81 detected with HRP-conjugated anti-VHH antibody. The following applies: both partners purified.

For experiment [3], the target named is T2, plasma-derived VWF (Homo sapiens, UniProt P04275).
T2 construct: von Willebrand factor from plasma (multimeric); In the flow-chamber functional row the VWF is that of human whole blood; also called plasma VWF; Humate-P; source: reconstituted in PBS from outdated lyophilized Humate-P (CSL-Behring)
The description is as above. The conditions noted are these: both partners purified.

Chain of GPIbα LBD (Homo sapiens) (P07359 17-306): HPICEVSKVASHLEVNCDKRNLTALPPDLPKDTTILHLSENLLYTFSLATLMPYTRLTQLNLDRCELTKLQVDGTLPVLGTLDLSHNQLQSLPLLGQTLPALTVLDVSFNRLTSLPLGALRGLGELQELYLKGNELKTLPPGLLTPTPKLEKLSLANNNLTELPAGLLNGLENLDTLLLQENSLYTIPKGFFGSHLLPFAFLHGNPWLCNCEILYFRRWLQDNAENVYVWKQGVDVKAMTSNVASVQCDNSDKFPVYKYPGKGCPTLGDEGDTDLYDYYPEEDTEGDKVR

Turning to “von Willebrand factor AIM-A1 1238-1471 (from UniProt P04275)”, in experiment [1], the dissociation constant Kd was 32000 nM.

B1: monomeric recombinant VHH81 (construct not stated for this experiment) (VHH)
VHH: EVQLVESGGGLVQPGGSLRLSCAASGRTFSYNPMGWFRQAPGKGRELVAAISRTGGSTYYPDSVEGRFTISRDNAKRMVYLQMNSLRAEDTAVYYCAAAGVRAEDGRVRTLPSEYTFWGQGTQVTVSS
notes: also called PMP12A2h1; source: produced in bacteria
For the molecule B1, the Kd in experiment [2] and in experiment [3] was approximately 20 nM in each case.
